Measurements: patent publication US8481333B2 (IDEXX Laboratories, Inc., priority 2011, dated 2013)
“Also recorded” adds a separate entry of the source.

Tests used:
[1] = type: in vitro ADME, feline
Procedure: For plasma extraction, 100 uL of plasma was precipitated by addition of 200 uL methanol in a 1.5 mL protein LoBind eppendorf tube. After vortexing for 10 seconds, the precipitate was pelleted by centrifugation at 13,000 rpm for 15 minutes at 10° C. using a benchtop centrifuge. The supernatant was transferred to a limited volume glass HPLC vial and analyzed by LC/MS as described in the following examples.
To characterize the fsNT-proBNP stable degradation products present after incubation in feline plasma, fsNT-proBNP was added to feline plasma at 1, 5, and 10 μg/mL and incubated at room temperature. At 0, 24, 48, 96, and 192 hours, 100 μL aliquots of the plasma were collected and combined with 200 μL of methanol to form a precipitate. After centrifugation, the supernatant was analyzed for stable peptides by LC/MS as described in Example 1.
The relative abundance of several fragments from the N-terminal, capture, and C-terminal regions were evaluated over time.

[2] = feline plasma; conditions: room temperature, up to 192 hours

Row | Sequence | prevalence of polypeptide fragments in plasma [1] | fragment found [2]
1 | ASEASAIQELLDGLRDTVSEL (Preferred Feline NT-proBNP N-Terminal Peptide Plasma Degradent) [SEQ ID NO: 5] | most prevalent | –
2 | HPLGGPGPASEASAIQELLDGLRDTVSELQEAQMALGPLQQGHSPAESWEAQEEPPARVLAPHDNVLRALRRLGSSKM | – | ASEASAIQELLDGLRDTVSEL, major; also recorded: DGLRDTVSEL; also recorded: LDGLRDTVSELQEAQM; also recorded: LGPLQQGHSPAESWEAQEEPPAR; also recorded: LGPLQQGHSPAESWEAQEEPPARVLAPHDNVLR, major; also recorded: LQQGHSPAESWEAQEEPPARVLAPHDNVLR, major; also recorded: VLAPHDNVLR
3 | LGPLQQGHSPAESWEAQEEPPARVLAPHDNVLR (Preferred Feline NT-proBNP C-Terminal Peptide Plasma Degradent) [SEQ ID NO: 9] | most prevalent | –
4 | LQQGHSPAESWEAQEEPPARVLAPHDNVLR (Preferred Feline NT-proBNP C-Terminal Peptide Plasma Degradent) [SEQ ID NO:10] | most prevalent | –
